Data taken from US20240043504A1 (published 2024).
Where a chain is given by its changes, count along the chain named.

Molecular target: SARS-COV-2 RBD extracellular domain expressed with a C-terminal mouse IgG2a (SARS-CoV-2)
Experiment: SPR Biacore, mAb captured via anti-hFc, 25 C

B1: mAb10964 (antibody, V domains shown)
VH: QVQLQESGPGLVKPSETLSLTCTVSGGSINNYYWIWIRQPPGKGLEWIGYIYHSGSTNYNPSLKSRVTISVDTSKNQFSLKVSSVTAADTAVYYCANMVRGVYEDDYWGQGTLVTVSS
VL: DIQMTQSPSSLSASVGDRVTITCRASQSISNYLNWYQQKPGKAPKLLIFAASSLRSGVPSRFSGSGSGTDFTLTISSLHPEDFATYYCQQNYNTPLTFGPGTKVDIKR
B1 was tested, and the Kd was 3.97 pM and the “t½” value was 5.22 h.

B2: mAb10913 (antibody, V domains shown)
VH: EVQLVESGGGLVQPGGSLRLSCAASGFTFRNYEMNWVRQAPGKGLEWVSYITSSGSTMYYADSVKGRFTISRDNAKNSLYLQMNSLRAEDTAVYYCARDGFYYYYAMDVWGQGTTVTVSS
VL: QSVLTQPPSVSAAPGQKVTISCSGSSSNIGNNYVSWYQQLPGTAPKLLIYDNNKRPSGIPDRFSGSKSGTSATLGITGLQTGDEADYYCGTWDSSLSVGRVFGTGTKVTVLG
B2 showed a Kd of 55.3 pM, a koff of 0.000277 s⁻¹ and a kon of 5e+06 M⁻¹ s⁻¹. The “t½” value was 0.695 h.

B3: mAb10915 (antibody, V domains shown)
VH: EVQLVESGGGLVQPGGSLRLSCAASGFTVSSNYMNWVRQAPGKGLEWVSVIYSGGSTFYADSVKGRFTISRHNSKNTLYLQMNSLRPEDTAVYYCARDLGGYFDYWGQGTLVTVSS
VL: not shown
With B3 the Kd was 32.3 pM and the “t½” value was 21.1 h.

B4: mAb10971 (antibody, V domains shown)
VH: EVQLVESGGGLIQPGGSLRLSCAASGVTVSSNYMSWVRQAPGKGLEWVSVIYSGGSTFYSDSVKGRFSISRDNSKNTLYLQMNSLRAEDTAVYYCARDLYYYGMDVWGQGTTVTVSS
VL: DIQLTQSPSFLSASVGDRVTITCRASQGISTYLAWYQQKPGKAPKLLIYAASTLQSGVPSRFSGSGSGTEFTLTISSLQPEDFATYYCQQLDSYPGLTFGGGTKVEIKR
B4 showed a Kd of 29.2 pM, a koff of 4.09e-05 s⁻¹ and a kon of 1.4e+06 M⁻¹ s⁻¹. For the same binder, the “t½” value was 4.71 h.

B5: mAb10930 (antibody, V domains shown)
VH: EVQLVESGGGLVQPGRSLRLSCAASGFTFDDYAMYWVRQAPGKGLEWVSGISWNSGSIGYADSVKGRFTISRDNAKNSLYLQMNSLRAADTALYYCAKDKDWNSRGYYYYGMDVWGQGTTVTVSS
VL: not shown
With B5 the Kd was 181 pM, the koff was 0.000171 s⁻¹ and the kon was 943000 M⁻¹ s⁻¹. The “t½” value was 1.12 h.

B6: mAb10920 (antibody, V domains shown)
VH: QVQLVESGGGVVQPGRSLRLSCAASGFTFSYYGMHWVRQAPGKGLEWVAVIWYDGSNKFYADSVKGRFTISRDNSKNTLYLQMNSLRAEDTAVYYCAAARPGYYYGMDVWGQGTTVTVSS
VL: DIQMTQSPSSLSASVGDRVTITCRASQGISNYLAWFQQKPGKAPNSLIYAASSLQRGVPSKFSGSGSGTDFTLTISSLQPEDFATYYCQQYNSYPRTFGQGTKVEIKR
B6 was tested, and the Kd was 50.2 pM and the “t½” value was 0.755 h.

B7: mAb10937 (antibody, V domains shown)
VH: QITLKESGPTLVKPTQTLTLTCTFSGFSLSTNVVGVGWIRQPPGKALEWLALIYWNDDKRYSPSLKSRLTITKDTSKNQVVLTMTNMDPVDTATYYCAHGPTGDYFDYWGQGTLVTVSS
VL: not shown
With B7 the Kd was 30.4 pM, the koff was 5.4e-05 s⁻¹ and the kon was 1.78e+06 M⁻¹ s⁻¹. The “t½” value was 3.56 h.

B8: mAb10936 (antibody, V domains shown)
VH: QVQLVESGGGVVQPGRSLRLSCAASGFTFRNYGMHWVRQAPGKGLEWVSVIWYDGSNRYYADSVKGRFTISRDTSKNTLYLQMNSLRAEDTAVYYCARDPPITGTTGGDAFDIWGQGTMVTVSS
VL: not shown
Work on B8 yielded a Kd of 28.3 pM, a koff of 5.04e-05 s⁻¹ and a kon of 1.78e+06 M⁻¹ s⁻¹. The “t½” value was 3.82 h.

B9: mAb10914 (antibody, V domains shown)
VH: EVQLVESGGGLVQPGGSLRLSCAASGLIVSRNYMIWVRQAPGKGLEWVSVIYSGGSTFYADSVKGRFTISRHNSKNTLYLQMNSLRAEDTAVYYCARDLGTGGMDVWGQGTTVTVSS
VL: DIQLTQSPSFLSASVGDRVTITCWASQGISSYLAWYQQKPGKAPKLLIYAASTLQSGVPSRFSGSGSGTEFTLTISSLQPEDFATYYCQQLNSYPLTFGGGTKVEIKR
In the case of B9, the Kd is reported as 540 pM and the “t½” value is reported as 1.38 h.

B10: mAb10957 (antibody, V domains shown)
VH: B4 VH with I12V, S60A, S68T, Y79F, A87I, Y100G, Y101P
VL: B4 VL with T31S, E70Q, T72I, D92N, L97F, G101P, E106D
For B10, the Kd was 32.7 pM and the “t½” value was 5.75 h.

B11: mAb10956 (antibody, V domains shown)
VH: B4 VH with I12V, V27L, S60A, S68T, Y100I, Y101K
VL: not shown
In the case of B11, the Kd is reported as 88.7 pM and the “t½” value is reported as 1.48 h.

B12: mAb10923 (antibody, V domains shown)
VH: QVQLVQSGAEVKKPGASVKVSCKASGYTFINYYIHWVRQAPGQGLEWMGWINPNSGGTNYAQKFQGRVTMTRDTSISTAYMELSRLRSDDTAVYYCAIITIFGVVTWFDPWGQGTLVTVSS
VL: not shown
Binder B12 has a Kd of 36.7 pM, a koff of 0.000135 s⁻¹ and a kon of 3.69e+06 M⁻¹ s⁻¹. The “t½” value was 1.43 h.

B13: mAb10969 (antibody, V domains shown)
VH: QVQLVESGGGVVQPGRSLRLSCAASGFTFSSYAMHWVRQAPGKGLEWVAVISYDGSNKYYADSVKGRFTISRDNSKNTLYLQMNSLRAEDTAVYYCARDGRTITMVRGVIDDAFDIWGQGTMVTVSS
VL: not shown
For B13, the Kd was 216 pM and the “t½” value was 1.93 h.

B14: mAb10932 (antibody, V domains shown)
VH: EVQLVESGGGLVQSGGSLRLSCAASGLTVSSNYMSWVRQAPGKGLEWVSVIYSGGSTFYSDSVKGRFTISRHNSKNTLYLQMNSLRAEDTAVYYCARARGDAFDIWGQGTMVTVSS
VL: not shown
B14 gave a Kd of 96.7 pM, a koff of 2.85e-05 s⁻¹ and a kon of 295000 M⁻¹ s⁻¹. For the same binder, the “t½” value was 6.75 h.

B15: mAb10966 (antibody, V domains shown)
VH: EVQLVESGGGLVQPGGSLRLSCAASGLTVSSNYMSWVRQAPGKGLEWVSVIYSGGSTFYADSVKGRFTISRDNSKNTLYLQMNSLRPEDTAVYYCAREGRIAATGYGMDVWGQGTTVTVSS
VL: not shown
With B15 the Kd was 22.4 pM and the “t½” value was 5.71 h.

B16: mAb10934 (antibody, V domains shown)
VH: not shown
VL: DIQMTQSPSSLSASVGDRVTITCQASQDIWNYINWYQQKPGKAPKLLIYDASNLKTGVPSRFSGSGSGTDFTFTISSLQPEDIATYYCQQHDDLPPTFGQGTKVEIKR
In the case of B16, the Kd is reported as 13.9 pM.

B17: mAb10955 (antibody, V domains shown)
VH: EVQLVESGGGLVQPGGSLRVSCAASGFTVSRNYMSWVRQAPGKGLEWVSVIYSGGSTFYADSVKGRFTISRDNSKNTLYLQMNSLRAEDTAIYYCARYIPRFDPWGQGTLVTVSS
VL: B16 VL with W30S, I33L, Y36F, K42R, K55E, H91Y, D93N, P96I, K103R, V104L
In the case of B17, the Kd is reported as 77.1 pM and the “t½” value is reported as 2.09 h.

B18: mAb10935 (antibody, V domains shown)
VH: EVQLVESGGGLVQPGGSLRLSCAASGFTVSSNYMSWVRQAPGKGLEWVSLIYSGGSTYYADSVKGRFTISRHNSKNTLYLQMNSLRSEDTAVYYCARVPLGDYYYGMDVWGQGTTVTVSS
VL: B16 VL with W30N, N31K, I33L, K55E, H91S, D93N, P96L, Q100G
With B18 the Kd was 79.4 pM, the koff was 0.000107 s⁻¹ and the kon was 1.35e+06 M⁻¹ s⁻¹. The “t½” value was 1.8 h.

B19: mAb10938 (antibody, V domains shown)
VH: EVQLVESGGGLVQPGGSLRLSCAVSGFTVSSNYMSWVRQAPGKGLEWVSLIYSGGSTFYADSVKGRFTISRHNSKNTLYLQMNSLRAEDTAVYYCAREGGYSYDYNYWGQGTLVTVSS
VL: B16 VL with W30R, I33L, K55E, S65I, H91Y, D93N, P96I, K103R, V104L
With B19 the Kd was 70.2 pM and the “t½” value was 11.4 h.

B20: mAb10954 (antibody, V domains shown)
VH: EVQLVESGGGLVQPGGSLRLSCAASGITVSSNYMSWVRQAPGKGLEWVSLIYSGGSTYYADSVKGRFTISRDNSKNTLYLQMNSLRVEDTAVYYCARDHGMAAAGYNYWGQGTLVTVSS
VL: B16 VL with W30N, N31K, I33L, K55E, S76N, I83F, Y87F, H91Y, D93N, T97A
For B20, the Kd was 20.3 pM and the “t½” value was 4.03 h.

B21: mAb10967 (antibody, V domains shown)
VH: EVQLVESGGGLVQPGGSLRLSCAASGFTVSSNYMSWVRQAPGKGLEWVSVIYPGGSTFYADSVKGRFTISRDNSKNTLYLQMNSLRAEDTAVYYCARDQRDFAWGQGTLVTVSS
VL: B16 VL with W30S, I33L, K55E, S77G, H91Y, D93N, K103R, V104L
With B21 the Kd was 20.3 pM and the “t½” value was 14.3 h.

B22: mAb10939 (antibody, V domains shown)
VH: EVQLVESGGGLVQPGGSLRLSCAASGLTVSSNYMNWVRQVPGKGLEWVSVIYSGGSKFYVDSVKGRFTISRHNSKNTLYLQMNSLRPEDTAVYYCTRDAQYYGMDVWGQGTTVTVSS
VL: DIQMTQSPSSLSASVGDRVTITCRASQSISTYLHWYQQKPGEAPKLLIYAASSLQSGVPSRFSGSGSGTDFTLTISSLQPEDFATYYCQQSYSTPPEIFGQGTKLEIKR
B22 gave a Kd of 121 pM, a koff of 8.74e-05 s⁻¹ and a kon of 722000 M⁻¹ s⁻¹. For the same binder, the “t½” value was 2.2 h.

B23: mAb10965 (antibody, V domains shown)
VH: EVQLVESGGGLIQPGGSLRLSCAASVFTVSYNYMSWVRQAPGKGLEWVSVIYSGGSTYYADSVKGRFTISRDNSKNTLYLQMNSLRAEDTAVYYCARALPGWGGSFEYFDYWGQGTLVTVSS
VL: not shown
With B23 the Kd was 225 pM and the “t½” value was 1.23 h.

B24: mAb10921 (antibody, V domains shown)
VH: EVQLVESGGGLVQPGGSLRLSCAASGITVSSNYMSWVRQAPGKGLEWVSVIYSGGSTFYADSVKGRFTISRHNSKNTLYLQMNSLRAEDTAVYYCARERNFDAFDIWGQGTMVTVSS
VL: DIQMTQSPSSVSASVGDRVTITCRASQGISSWLAWYQQKPGKAPKLLIYAASSLQSGVPSRFSGSGSGTDFTLTISSLQPEDFATYYCQQANSFPLFTFGPGTKVDIKR
In the case of B24, the Kd is reported as 125 pM, the koff is reported as 3.34e-05 s⁻¹ and the kon is reported as 266000 M⁻¹ s⁻¹. For the same binder, the “t½” value was 5.76 h.
